Measured values published in PMC10952133, “Phytocystatin 6 is a context‐dependent, tight‐binding inhibitor of Arabidopsis thaliana legumain isoform β” (The Plant Journal, 2023).
Read-outs that look alike come from different tables or passages of the source.

T1: Papain from Carica papaya (Carica papaya, UniProt P00784 134-345)
T1 construct: papain of Carica papaya, used as a model of the papain-like cysteine proteases; source: bought: Merck
T1 sequence (looked up): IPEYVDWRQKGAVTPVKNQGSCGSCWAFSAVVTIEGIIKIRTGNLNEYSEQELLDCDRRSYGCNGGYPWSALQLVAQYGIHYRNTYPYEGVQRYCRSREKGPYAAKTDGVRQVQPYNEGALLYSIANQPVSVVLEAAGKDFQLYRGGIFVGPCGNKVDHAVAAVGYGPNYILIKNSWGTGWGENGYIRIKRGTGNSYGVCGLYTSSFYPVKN


Tests used:
[1] = target: Arabidopsis thaliana legumain isoform β, activated (AtLEGβ) (Arabidopsis thaliana) (UniProt Q39044); assay: enzyme inhibition kinetics (Ki, Morrison equation); turnover of 50 μM Z-Ala-Ala-Asn-AMC by 50 nM legumain, 25°C, 20 mM citric acid pH 5.5, 100 mM NaCl, 0.02% Tween 20, 2 mM DTT; inhibitor in 1:2 serial dilutions from 15-fold the enzyme concentration, quadruplicates
[2] = target: human legumain, activated (hLEG) (human) (UniProt Q99538); assay: as above
[3] = target: Arabidopsis thaliana legumain isoform γ, activated (AtLEGγ) (Arabidopsis thaliana) (UniProt Q39119); assay: as above
[4] = target: Arabidopsis thaliana legumain isoform β, activated (AtLEGβ) (Arabidopsis thaliana) (UniProt Q39044)
[5] = target: T1, Papain from Carica papaya; assay: enzyme inhibition kinetics (Ki, Morrison equation); turnover of 50 μM Z-Phe-Arg-AMC by 50 nM papain, 25°C, 20 mM MES pH 6.0 (legend of Figure 3: pH 6.5), 50 mM NaCl, 0.02% Tween 20, 2 mM DTT; inhibitor in 1:2 serial dilutions from 15-fold the enzyme concentration, quadruplicates

Arabidopsis thaliana legumain isoform β, activated (AtLEGβ) (Arabidopsis thaliana), sequence (Q39044 22-486): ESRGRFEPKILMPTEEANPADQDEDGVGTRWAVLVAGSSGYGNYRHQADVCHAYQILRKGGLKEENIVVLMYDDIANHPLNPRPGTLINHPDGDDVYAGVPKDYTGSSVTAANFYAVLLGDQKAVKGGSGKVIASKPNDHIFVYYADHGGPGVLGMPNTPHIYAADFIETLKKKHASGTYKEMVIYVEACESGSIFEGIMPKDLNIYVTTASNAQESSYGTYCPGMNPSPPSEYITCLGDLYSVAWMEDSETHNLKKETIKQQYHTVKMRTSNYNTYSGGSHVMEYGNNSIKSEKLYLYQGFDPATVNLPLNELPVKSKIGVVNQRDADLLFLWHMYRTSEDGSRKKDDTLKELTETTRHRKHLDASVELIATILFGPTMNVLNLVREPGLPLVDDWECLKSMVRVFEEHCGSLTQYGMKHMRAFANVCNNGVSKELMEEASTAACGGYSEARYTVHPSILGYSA
Arabidopsis thaliana legumain isoform γ, activated (AtLEGγ) (Arabidopsis thaliana), sequence (Q39119 30-494): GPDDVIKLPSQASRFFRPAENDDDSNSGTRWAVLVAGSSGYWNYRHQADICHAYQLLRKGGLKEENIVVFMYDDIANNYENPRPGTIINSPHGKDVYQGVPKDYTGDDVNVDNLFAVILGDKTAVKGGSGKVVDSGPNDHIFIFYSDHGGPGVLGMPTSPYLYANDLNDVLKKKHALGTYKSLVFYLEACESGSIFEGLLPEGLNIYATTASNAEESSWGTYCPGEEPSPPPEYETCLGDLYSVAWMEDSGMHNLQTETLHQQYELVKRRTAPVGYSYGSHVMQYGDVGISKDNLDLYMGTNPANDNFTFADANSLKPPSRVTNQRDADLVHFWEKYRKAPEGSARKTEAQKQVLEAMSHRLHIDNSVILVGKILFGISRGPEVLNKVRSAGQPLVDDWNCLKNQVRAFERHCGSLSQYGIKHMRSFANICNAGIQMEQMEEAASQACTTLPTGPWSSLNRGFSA
human legumain, activated (hLEG) (human), sequence (Q99538 18-323): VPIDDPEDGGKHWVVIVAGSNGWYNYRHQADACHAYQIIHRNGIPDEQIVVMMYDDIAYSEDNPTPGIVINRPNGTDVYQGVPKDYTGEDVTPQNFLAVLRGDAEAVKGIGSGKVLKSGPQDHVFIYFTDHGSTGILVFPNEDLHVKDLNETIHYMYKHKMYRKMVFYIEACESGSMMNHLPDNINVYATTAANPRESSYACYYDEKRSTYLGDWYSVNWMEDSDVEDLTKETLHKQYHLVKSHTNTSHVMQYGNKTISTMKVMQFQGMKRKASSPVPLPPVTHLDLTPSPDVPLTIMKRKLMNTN

Molecule | Ki [1] [nM] | Ki [2] [nM] | Ki [3] [nM] | also measured
AtCYT6-CTD-K208A (domain or fragment) | 3.98 |  |  | 
AtCYT6-CTD-R205A (domain or fragment) | 3.36 |  |  | 
C-terminal domain of AtCYT6 (AtCYT6-CTD, E142-D235) (domain or fragment) | 0.61 | 61.4 | 0.86 | inflection temperature T i of AtLEGβ by nanoDSF at pH 6.5, equimolar AtCYT6-CTD (AtLEGβ alone 49.6°C) [4]: 57 °C
C-terminal domain of AtCYT6 carrying the interdomain linker (AtCYT6-CTDlong, A128-D235) (domain or fragment) | 0.68 |  |  | 
full-length AtCYT6 lacking the N-terminal signal peptide (AtCYT6-FL, A35-D235) (natural protein) | 0.29 | 106 | 1.21 | inflection temperature T i of AtLEGβ by nanoDSF at pH 6.5, equimolar AtCYT6-FL (AtLEGβ alone 49.6°C) [4]: 58.9 °C; Ki [5]: 27.8 nM
N-terminal domain of AtCYT6 (AtCYT6-NTD, A35-D127) (domain or fragment, Arabidopsis thaliana, UniProt Q8H0X6-1 35-127, looked up, Arabidopsis thaliana cystatin 6, N-terminal cystatin domain, residues A35-D127; Cloned into pET-28; source: E. coli BL21(DE3), purified (Ni-NTA, SEC)) ALVGGVGDVPANQNSGEVESLARFAVDEHNKKENALLEFARVVKAKEQVVAGTLHHLTLEILEAGQKKLYEAKVWVKPWLNFKELQEFKPASD |  |  |  | Ki ([5]; both partners purified): 6.3 ± 1.43 nM
